Results as given in publication PMC6884552, “Glycogen branching enzyme controls cellular iron homeostasis via Iron Regulatory Protein 1 and mitoNEET” (Nature Communications, 2019).

Target: T1, Flag-tagged Drosophila Iron Regulatory Protein 1A (IRP1A), wild type (Drosophila, UniProt Q9VCV4 1-902)
T1 construct: Drosophila IRP1A, cDNA LD36161; also called wild type IRP1A; 3x Flag-tagged IRP1A; source: S2 cells, transfected, in lysate
T1 sequence (looked up): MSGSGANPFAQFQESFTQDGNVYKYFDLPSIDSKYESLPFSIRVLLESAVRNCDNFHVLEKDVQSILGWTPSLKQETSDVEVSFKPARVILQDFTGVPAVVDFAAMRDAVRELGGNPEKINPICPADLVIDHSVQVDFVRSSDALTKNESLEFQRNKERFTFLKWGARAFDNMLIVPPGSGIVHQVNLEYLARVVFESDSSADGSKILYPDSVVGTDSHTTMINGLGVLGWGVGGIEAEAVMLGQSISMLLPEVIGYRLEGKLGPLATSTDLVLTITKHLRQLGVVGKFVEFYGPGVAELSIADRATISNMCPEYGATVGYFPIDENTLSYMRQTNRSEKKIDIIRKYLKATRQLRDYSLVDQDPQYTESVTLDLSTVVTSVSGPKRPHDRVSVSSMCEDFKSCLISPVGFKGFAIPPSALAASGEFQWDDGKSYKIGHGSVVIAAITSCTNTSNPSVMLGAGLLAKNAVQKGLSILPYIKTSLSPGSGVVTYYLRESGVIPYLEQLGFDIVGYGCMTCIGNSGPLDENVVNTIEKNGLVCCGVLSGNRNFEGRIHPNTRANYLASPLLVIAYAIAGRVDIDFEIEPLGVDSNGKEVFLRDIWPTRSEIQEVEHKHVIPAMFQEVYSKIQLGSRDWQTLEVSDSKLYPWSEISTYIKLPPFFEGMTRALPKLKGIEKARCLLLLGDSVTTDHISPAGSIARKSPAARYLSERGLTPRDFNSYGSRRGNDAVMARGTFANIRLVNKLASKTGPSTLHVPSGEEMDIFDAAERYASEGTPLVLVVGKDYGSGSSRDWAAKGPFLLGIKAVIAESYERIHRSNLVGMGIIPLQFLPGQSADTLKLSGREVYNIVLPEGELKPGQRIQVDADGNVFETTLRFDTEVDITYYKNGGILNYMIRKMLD
Experiment: co-IP; S2 cells, triple co-transfection of 3xFlag-IRP1A, 6xMyc-AGBE and 3xHA-Cisd2 from one plasmid; Flag-IRP1A as bait; co-precipitated Cisd2 quantified against the sample without AGBE; three biological replicates
Conditions: partners not purified

- fold change of co-immunoprecipitated Cisd2 with AGBE co-transfected against without AGBE: ~3 fold
B1: HA-tagged Drosophila Cisd2 (natural protein, UniProt Q9VAM6 1-133, looked up)
chain: MEPISHLVKSSLPNYLSSLPVPDSIGGWFKLSFKDWLALIPPTVVVAGLGYTAYLAYCPAARASCAAKNSGRCNNHIRKNEPKVVDMIDVEDIAEKAAFCRCWKTKNWPYCDGSHGEHNKQTGDNVGPIVIKK
notes: Drosophila Cisd2, cDNA RE49709; also called mitoNEET; Cisd2/mitoNEET; source: S2 cells, transfected, in lysate
